Measurements taken from patent US5985836A, “Alpha-1 proteinase inhibitor binding peptides” (Bayer Corporation, priority 1998, dated 1999).
Each block holds one substance with its values, some of them ahead of it.

How the values were obtained:
[1] = molecular target: T1, A1PI (Homo sapiens, UniProt P01009); test: Capture and elution of active A1PI with 2M urea buffer (elastase inhibition activity assay and immunonephelometry); type: binding
T1 construct: Human plasma is currently the only approved source of therapeutic AlPI

[2] = molecular target: T1, A1PI; test: Purification of A1PI from Effluent II+III on peptide column, A1PI mass balance; type: binding; details: Table 11, 1 ml Eff. II+III, 4° C.
Method: Sequences 1-11 and 15 were assayed with Effluent II+III (Eff. II+III). Eff. II+III is a process intermediate in the Cohn plasma fractionation process. The feed stream contains 20% (by volume) ethanol, 20-25 mg/ml hSA and approximately 1 mg/ml AlPI. The stream also contains other proteins including anti-thrombin III (AT3), immunoglobin G (IgG), immunoglobin A (IgA), apolipoprotein alpha-1 (Apo A-1), transferrin (Trf), haptoglobin (Hpt), and alpha-1 acid glycoprotein (AAG) at concentrations ranging from 0.1-1 mg/ml.
The columns were assayed using the same technique as the hSA+AlPI experiments, allowing for a 10 minute residence time followed by a constant flow rate of 865 μl/min with step elutions of 1M NaCl, 3M NaCl, and 2% acetic acid. All experiments were conducted at 4° C. The mass balances for the injection of 1 ml Eff. […] The AlPI was enriched from 3% of the total protein in the feed to upwards of 50% in the acid eluate.

[3] = molecular target: T1, A1PI; test: A1PI purification from 5 mg hSA + 1 mg A1PI on peptide column, A1PI mass balance; type: binding; details: Table 10, A1PI, 5 mg hSA + 1 mg A1PI; for Mass Protein per Eluate Fraction, 1M NaCl / Mass Protein per Eluate Fraction, 2% Acetic Acid / Mass Protein per Eluate Fraction, Flow: * Below detection limit; for Percent Eluted by Fraction, 1M NaCl / Percent Eluted by Fraction, 2% Acetic Acid / Percent Eluted by Fraction, 3M NaCl / Percent Eluted by Fraction, Flow: relative to total loaded
Method in brief: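 Mass balance by immunonephelometry of fractions from step elutions (1M NaCl, 3M NaCl, 2% acetic acid, neutralised with Tris) at 865 μl/min. Sample was a mixture of 1 mg A1PI and 5 mg hSA held 10 min on peptide-derivatised Toyopearl columns (0.1 mmole/g) at 4 °C or 20 °C.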

[4] = molecular target: T1, A1PI; test: A1PI yield from dialyzed (aqueous) Effluent II+III; type: binding; details: 4° C.
Method: Effluent II+III was dialyzed against equilibration buffer at 4° C. to remove the ethanol using a 15,000 molecular weight cut-off membrane. Nephelometry of the Eff. […] A portion of the identified sequences were assayed under the same conditions applied for neat Eff. II+III at 4° C. […] II+III compared to the neat, ethanol-containing feed. The binding strength differed for the aqueous feed as more AlPI eluted in 1M NaCl for the aqueous feed. The AlPI eluted in the 1M NaCl fractions was not as enriched as that eluted in the acid eluates.

[5] = molecular target: T1, A1PI; test: A1PI binding on peptide-resin column, injection of 1 mg A1PI in equilibration buffer; details: Trp position mutations, 1 mg A1PI
Method in brief: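 Percent of total eluted A1PI per fraction (flowthrough, NaCl steps, 2% acetic acid) determined by A280 integration or immunonephelometry. Columns of peptide-derivatized A-Totda-Toyopearl resin (0.1 mmole/g) received 1 mg A1PI at 4 °C or 20 °C, flow 865 or 523 μl/min.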

[6] = 1 ml dialyzed Eff. II+III (ethanol removed)
[7] = A1PI, 1 ml dialyzed Eff. II+III

T1 sequence (P01009 25-418): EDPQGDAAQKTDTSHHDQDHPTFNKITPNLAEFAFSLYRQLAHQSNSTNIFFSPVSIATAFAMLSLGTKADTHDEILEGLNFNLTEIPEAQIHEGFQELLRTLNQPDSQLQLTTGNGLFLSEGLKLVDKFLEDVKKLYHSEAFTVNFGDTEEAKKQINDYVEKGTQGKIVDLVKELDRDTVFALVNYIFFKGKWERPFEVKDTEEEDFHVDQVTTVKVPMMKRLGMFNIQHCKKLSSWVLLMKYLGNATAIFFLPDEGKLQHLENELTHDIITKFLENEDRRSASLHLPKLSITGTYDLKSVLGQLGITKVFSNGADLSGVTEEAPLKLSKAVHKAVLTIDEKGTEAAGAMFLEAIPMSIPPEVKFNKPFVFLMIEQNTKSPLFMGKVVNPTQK

Substance: Neat A1PI: freshly dissolved human alpha-1 proteinase inhibitor fed to the columns
Mass A1PI in Urea Eluate (mg), Activity ([1]; 1 mg A1PI, 4° C., eluted with 2M urea, pH 6, elastase inhibition activity assay): 0.87 mg
Mass A1PI in Urea Eluate (mg), Nephelometry ([1]; 1 mg A1PI, 4° C., eluted with 2M urea, pH 6, immunonephelometry): 1.10 mg
Specific Activity ([1]; activity assay mass relative to immunonephelometry mass): 0.79 mg/mg
Specific Activity ([1]; mass of A1PI by activity assay relative to immunonephelometry, urea eluate, 4° C.): 0.79 mg/mg

Mass A1PI per Eluate Fraction, 1M NaCl ([2]; * Below detection limit): 0.05 mg
Mass A1PI per Eluate Fraction, 2% Acetic Acid ([2]; * Below detection limit): 0.57 mg
Mass A1PI per Eluate Fraction, Flowthrough ([2]; * Below detection limit): 0.22 mg
Percent Eluted by Fraction, 1M NaCl ([2]; A1PI): 6%
Percent Eluted by Fraction, 2% Acetic Acid ([2]; A1PI): 68%
Percent Eluted by Fraction, Flowthrough ([2]; A1PI): 27%
Mass Protein per Eluate Fraction, 1M NaCl ([3]; 4° C.): 0.12 mg
Mass Protein per Eluate Fraction, 2% Acetic Acid ([3]; 4° C.): 0.75 mg
Mass Protein per Eluate Fraction, Flow ([3]; 4° C.): 0.12 mg
Percent Eluted by Fraction, 1M NaCl ([3]; 4° C.): 12%
Percent Eluted by Fraction, 2% Acetic Acid ([3]; 4° C.): 76%
Percent Eluted by Fraction, 3M NaCl ([3]; 4° C.): 0%
Percent Eluted by Fraction, Flow ([3]; 4° C.): 12%
Mass Protein per Eluate Fraction, 1M NaCl ([3]; 20° C.): 0.07 mg
Mass Protein per Eluate Fraction, 2% Acetic Acid ([3]; 20° C.): 0.48 mg
Mass Protein per Eluate Fraction, Flow ([3]; 20° C.): 0.13 mg
Percent Eluted by Fraction, 1M NaCl ([3]; 20° C.): 11%
Percent Eluted by Fraction, 2% Acetic Acid ([3]; 20° C.): 70%
Percent Eluted by Fraction, 3M NaCl ([3]; 20° C.): 0%
Percent Eluted by Fraction, Flow ([3]; 20° C.): 19%
Mass A1PI per Eluate Fraction, 1M NaCl [4, 6]: 0.12 mg
Mass A1PI per Eluate Fraction, 2% Acetic Acid [4, 6]: 0.16 mg
Mass A1PI per Eluate Fraction, Flowthrough [4, 6]: 0.46 mg
Percent Eluted by Fraction, 1M NaCl [4, 7]: 16%
Percent Eluted by Fraction, 2% Acetic Acid [4, 7]: 22%
Percent Eluted by Fraction, Flowthrough [4, 7]: 62%
% of Total A1PI Eluted by Fraction (Based on Absorbance at 280 nm), 1M NaCl ([5]; 4° C.): 28%
% of Total A1PI Eluted by Fraction (Based on Absorbance at 280 nm), 2% Acetic Acid ([5]; 4° C.): 72%
% of Total A1PI Eluted by Fraction (Based on Absorbance at 280 nm), Flowthrough ([5]; 4° C.): 0%
% of Total A1PI Eluted by Fraction (Based on Absorbance at 280 nm), 1M NaCl ([5]; 20° C.): 15%
% of Total A1PI Eluted by Fraction (Based on Absorbance at 280 nm), 2% Acetic Acid ([5]; 20° C.): 85%
% of Total A1PI Eluted by Fraction (Based on Absorbance at 280 nm), Flowthrough ([5]; 20° C.): 0%
Substance: VIYLVR: VIWLVR with Trp at position 3 replaced by Tyr
